According to the supplement of paper PMC6757056:
± gives the standard deviation of the averaged measurements.

B1: library; a variant is named by its letters at N, in order (parent)
chain: GCUGUCACCGGUGCUUGGUACGUUAUAUUCAGCCGGUCUGAUGAGUCUNNNNNNAGACGAAACAGC

Legend:
(6R,S)-folinic acid [1] = variants of: B1; test: normalized RNA/DNA level without ligand (relative to sTRSVctl = 100) (log10 (% of sTRSVctl)); HEK293T overexpressing SLC46A1; higher = less ribozyme self-cleavage, higher mRNA level; settings: without (6R,S)-folinic acid; ligand present: no
Method in brief: (§1)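 Library plasmids carrying ribozyme switches linked to mCherry, or to eGFP in some ligand experiments, were transfected into HEK293T at 4 µg per 6-well well, with any ligand added 1 h earlier. Seventy-two hours on, total RNA was extracted with EDTA and reverse-transcribed, amplified, barcoded and sequenced. RNA level was RNA over DNA reads normalized to a spiked-in non-cleaving sequence or to the top sequences, then scaled and log-transformed. The top set was 25 sequences, the transform was ×100 and log10, and sequences needed ≥100 DNA reads.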

(6R,S)-folinic acid [2] = variants of: B1; test: normalized RNA/DNA level with ligand (relative to sTRSVctl = 100) (log10 (% of sTRSVctl)); HEK293T overexpressing SLC46A1; ligand concentration (+) RNA-Seq: 6 mM; higher = less ribozyme self-cleavage, higher mRNA level; settings: with (6R,S)-folinic acid; ligand present: yes
Method in brief: as §1

Row | Variant | normalized RNA/DNA level without ligand (log10) ((6R,S)-folinic acid [1]) | normalized RNA/DNA level with ligand (log10) ((6R,S)-folinic acid [2])
1 | GCUGUCACCGGUGCUUGGUACGUUAUAUUCAGCCGGUCUGAUGAGUCUACCGCAAGACGAAACAGC | 2.009 ± 0.018 | 2.01 ± 0.024
2 | GCUGUCACCGGUGCUUGGUACGUUAUAUUCAGCCGGUCUGAUGAGUCUCCCCGUAGACGAAACAGC | 2.05 ± 0.028 | 2.047 ± 0.01
3 | GCUGUCACCGGUGCUUGGUACGUUAUAUUCAGCCGGUCUGAUGAGUCUCCCCGGAGACGAAACAGC | 2.083 ± 0.0038 | 2.06 ± 0.022
4 | GCUGUCACCGGUGCUUGGUACGUUAUAUUCAGCCGGUCUGAUGAGUCUACCCUGAGACGAAACAGC | 2.006 ± 0.013 | 2.032 ± 0.013
5 | GCUGUCACCGGUGCUUGGUACGUUAUAUUCAGCCGGUCUGAUGAGUCUACCCUAAGACGAAACAGC | 2.018 ± 0.015 | 2.03 ± 0.022
6 | GCUGUCACCGGUGCUUGGUACGUUAUAUUCAGCCGGUCUGAUGAGUCUACCCUCAGACGAAACAGC | 2.03 ± 0.031 | 2.02 ± 0.032
7 | GCUGUCACCGGUGCUUGGUACGUUAUAUUCAGCCGGUCUGAUGAGUCUACCCUUAGACGAAACAGC | 2.02 ± 0.027 | 2.03 ± 0.044
8 | GCUGUCACCGGUGCUUGGUACGUUAUAUUCAGCCGGUCUGAUGAGUCUACCCGUAGACGAAACAGC | 2.0423 ± 0.0012 | 2.02 ± 0.0044
9 | GCUGUCACCGGUGCUUGGUACGUUAUAUUCAGCCGGUCUGAUGAGUCUACCCGCAGACGAAACAGC | 2.038 ± 0.02 | 2.03 ± 0.041
10 | GCUGUCACCGGUGCUUGGUACGUUAUAUUCAGCCGGUCUGAUGAGUCUACCCGGAGACGAAACAGC | 2.01 ± 0.022 | 2.04 ± 0.041
11 | GCUGUCACCGGUGCUUGGUACGUUAUAUUCAGCCGGUCUGAUGAGUCUGCCGAUAGACGAAACAGC | 2.015 ± 0.007 | 2.05 ± 0.03
12 | GCUGUCACCGGUGCUUGGUACGUUAUAUUCAGCCGGUCUGAUGAGUCUGCCGACAGACGAAACAGC | 1.982 ± 0.0078 | 2.04 ± 0.029
13 | GCUGUCACCGGUGCUUGGUACGUUAUAUUCAGCCGGUCUGAUGAGUCUCCCGCAAGACGAAACAGC | 2.06 ± 0.035 | 2.071 ± 0.02
14 | GCUGUCACCGGUGCUUGGUACGUUAUAUUCAGCCGGUCUGAUGAGUCUCCCGCCAGACGAAACAGC | 2.0796 ± 0.00065 | 2.05 ± 0.03
15 | GCUGUCACCGGUGCUUGGUACGUUAUAUUCAGCCGGUCUGAUGAGUCUGCCGCAAGACGAAACAGC | 2.04 ± 0.027 | 2.044 ± 0.019
16 | GCUGUCACCGGUGCUUGGUACGUUAUAUUCAGCCGGUCUGAUGAGUCUUCCGCAAGACGAAACAGC | 2.01 ± 0.03 | 2.01 ± 0.063
17 | GCUGUCACCGGUGCUUGGUACGUUAUAUUCAGCCGGUCUGAUGAGUCUUCCGAAAGACGAAACAGC | 1.941 ± 0.015 | 1.978 ± 0.019
18 | GCUGUCACCGGUGCUUGGUACGUUAUAUUCAGCCGGUCUGAUGAGUCUUCCGACAGACGAAACAGC | 2.029 ± 0.013 | 2.031 ± 0.0089
19 | GCUGUCACCGGUGCUUGGUACGUUAUAUUCAGCCGGUCUGAUGAGUCUUCCGAUAGACGAAACAGC | 1.96 ± 0.026 | 2 ± 0.038
20 | GCUGUCACCGGUGCUUGGUACGUUAUAUUCAGCCGGUCUGAUGAGUCUACCGACAGACGAAACAGC | 2.0415 ± 0.00053 | 2.03 ± 0.058
21 | GCUGUCACCGGUGCUUGGUACGUUAUAUUCAGCCGGUCUGAUGAGUCUACCGAUAGACGAAACAGC | 1.973 ± 0.0074 | 1.99 ± 0.044

Row | Variant | normalized RNA/DNA level without ligand (log10) ((6R,S)-folinic acid [1]) | normalized RNA/DNA level with ligand (log10) ((6R,S)-folinic acid [2])
22 | GCUGUCACCGGUGCUUGGUACGUUAUAUUCAGCCGGUCUGAUGAGUCUGCCCUGAGACGAAACAGC | 2.05 ± 0.023 | 2.04 ± 0.039
23 | GCUGUCACCGGUGCUUGGUACGUUAUAUUCAGCCGGUCUGAUGAGUCUGCCCUAAGACGAAACAGC | 2.034 ± 0.015 | 2.05 ± 0.032
24 | GCUGUCACCGGUGCUUGGUACGUUAUAUUCAGCCGGUCUGAUGAGUCUGCCCUCAGACGAAACAGC | 2.047 ± 0.015 | 2.03 ± 0.065
25 | GCUGUCACCGGUGCUUGGUACGUUAUAUUCAGCCGGUCUGAUGAGUCUGCCCUUAGACGAAACAGC | 2.021 ± 0.0059 | 2.01 ± 0.044
26 | GCUGUCACCGGUGCUUGGUACGUUAUAUUCAGCCGGUCUGAUGAGUCUUCCCUCAGACGAAACAGC | 2.07 ± 0.041 | 2.053 ± 0.0051
27 | GCUGUCACCGGUGCUUGGUACGUUAUAUUCAGCCGGUCUGAUGAGUCUUCCCUGAGACGAAACAGC | 1.919 ± 0.013 | 2.03 ± 0.039
28 | GCUGUCACCGGUGCUUGGUACGUUAUAUUCAGCCGGUCUGAUGAGUCUUCCCUAAGACGAAACAGC | 2.007 ± 0.0055 | 2 ± 0.024
29 | GCUGUCACCGGUGCUUGGUACGUUAUAUUCAGCCGGUCUGAUGAGUCUUCCCUUAGACGAAACAGC | 2.03 ± 0.026 | 2.006 ± 0.0086
30 | GCUGUCACCGGUGCUUGGUACGUUAUAUUCAGCCGGUCUGAUGAGUCUGCCCGGAGACGAAACAGC | 2.089 ± 0.005 | 2.02 ± 0.035
31 | GCUGUCACCGGUGCUUGGUACGUUAUAUUCAGCCGGUCUGAUGAGUCUGCCCGCAGACGAAACAGC | 2.0838 ± 0.0006 | 2.08 ± 0.03
32 | GCUGUCACCGGUGCUUGGUACGUUAUAUUCAGCCGGUCUGAUGAGUCUGCCCGUAGACGAAACAGC | 2.0126 ± 0.0014 | 2.007 ± 0.0028
33 | GCUGUCACCGGUGCUUGGUACGUUAUAUUCAGCCGGUCUGAUGAGUCUCCCGAGAGACGAAACAGC | 1.95 ± 0.0086 | 1.99 ± 0.022
34 | GCUGUCACCGGUGCUUGGUACGUUAUAUUCAGCCGGUCUGAUGAGUCUCCCGAUAGACGAAACAGC | 2.002 ± 0.016 | 2.017 ± 0.0026
35 | GCUGUCACCGGUGCUUGGUACGUUAUAUUCAGCCGGUCUGAUGAGUCUCCCGAAAGACGAAACAGC | 2.029 ± 0.0067 | 2.02 ± 0.056
36 | GCUGUCACCGGUGCUUGGUACGUUAUAUUCAGCCGGUCUGAUGAGUCUCCCGACAGACGAAACAGC | 2.043 ± 0.016 | 2.05 ± 0.033
37 | GCUGUCACCGGUGCUUGGUACGUUAUAUUCAGCCGGUCUGAUGAGUCUCCCCUUAGACGAAACAGC | 2.06 ± 0.023 | 2.05 ± 0.034
38 | GCUGUCACCGGUGCUUGGUACGUUAUAUUCAGCCGGUCUGAUGAGUCUCCCCUCAGACGAAACAGC | 2.05 ± 0.023 | 1.99 ± 0.038
39 | GCUGUCACCGGUGCUUGGUACGUUAUAUUCAGCCGGUCUGAUGAGUCUUCCCGCAGACGAAACAGC | 2.013 ± 0.015 | 1.99 ± 0.053
40 | GCUGUCACCGGUGCUUGGUACGUUAUAUUCAGCCGGUCUGAUGAGUCUUCCCGGAGACGAAACAGC | 2.05 ± 0.018 | 2.05 ± 0.059
41 | GCUGUCACCGGUGCUUGGUACGUUAUAUUCAGCCGGUCUGAUGAGUCUUCCCGUAGACGAAACAGC | 2.041 ± 0.013 | 2.04 ± 0.044
